Patent US20220332804A1 (CSL INNOVATION, published 2022)
Where a chain is given by its changes, count along the chain named.

Legend:
Test in all cases: SPR, KD relative to WT C2;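 further: biacore SPR at 37 °C, anti-C2 mAbs captured on anti-human IgG chips with alanine or serine point mutants of C2 as analyte, KD from 1:1 fit compared with wild-type C2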
human C2 N268A = molecular target: T1, human C2 N268A (human, UniProt P06681 21-752)
T1 sequence: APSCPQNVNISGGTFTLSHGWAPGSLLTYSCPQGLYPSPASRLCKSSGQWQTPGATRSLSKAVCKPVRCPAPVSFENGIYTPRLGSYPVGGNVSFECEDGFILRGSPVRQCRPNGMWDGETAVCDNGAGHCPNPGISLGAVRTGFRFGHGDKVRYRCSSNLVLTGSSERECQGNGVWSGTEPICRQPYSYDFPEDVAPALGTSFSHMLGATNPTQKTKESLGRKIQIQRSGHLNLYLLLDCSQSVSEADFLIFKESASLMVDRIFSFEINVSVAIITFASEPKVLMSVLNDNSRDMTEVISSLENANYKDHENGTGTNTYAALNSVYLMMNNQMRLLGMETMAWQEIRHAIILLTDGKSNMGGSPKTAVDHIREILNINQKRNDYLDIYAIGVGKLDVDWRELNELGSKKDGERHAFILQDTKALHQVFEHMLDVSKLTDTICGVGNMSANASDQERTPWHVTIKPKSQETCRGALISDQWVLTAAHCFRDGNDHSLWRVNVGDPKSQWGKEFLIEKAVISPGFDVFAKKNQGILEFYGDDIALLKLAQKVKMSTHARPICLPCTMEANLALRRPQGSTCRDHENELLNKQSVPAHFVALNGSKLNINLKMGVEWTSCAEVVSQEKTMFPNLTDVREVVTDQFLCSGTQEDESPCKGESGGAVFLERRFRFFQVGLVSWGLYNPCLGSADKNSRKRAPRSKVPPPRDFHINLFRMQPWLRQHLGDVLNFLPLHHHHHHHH

human C2 I438A = molecular target: T2, human C2 I438A (human, UniProt P06681 21-752)
T2 sequence: T1 sequence with A248N, I418A

human C2 D269A = molecular target: T3, human C2 D269A (human, UniProt P06681 21-752)
T3 sequence: T1 sequence with A248N, D249A

human C2 I320A = molecular target: T4, human C2 I320A (human, UniProt P06681 21-752)
T4 sequence: T1 sequence with A248N, I300A

B1: RF16-242 (antibody, human IgG4 S228P, lambda, V domains shown)
VH: EVQLLQSGAEVKKPGESLKISCKGSGYSFTSYWIGWVRQMPGKGLEWMGIIYPGDSDTRYSPSFQGQVTISADKSISTAYLQWSSLKASDTAMYYCARRGHYGDYFDYWGQGTLVTVSS
VL: SYELTQPPSVSVSPGQTARITCSGDALPKKYAYWYHQKSGQAPVLVIYEDRRRPSEIPERFSGSSSGTMATLTITGAQVEDEGVYFCYSRDRAGNQRVFGGGTQLTVLG
notes: pH-dependent anti-C2 antibody from a phage display library
Fold diff (human C2 N268A): 2 fold
Fold diff (human C2 I438A): 1 fold
Fold diff (human C2 D269A): 2 fold
Fold diff (human C2 I320A): 10 fold
